According to patent publication US7947462 (dated 2011):

Experiments:
DKK1-AP [1] = experiment: Scatchard analysis, cell binding (transfected 293T); panel b
DKK2-AP [2] = experiment: as above
DKK1-AP [3] = experiment: Scatchard analysis, cell binding (transfected 293T); panel d, Kd2 (low-affinity site)
DKK1-AP [4] = experiment: Scatchard analysis, cell binding (transfected 293T); panel d, Kd1 (high-affinity site)
DKK2-AP [5] = experiment: Scatchard analysis, cell binding (transfected 293T); panel e, Kd1 (high-affinity site)
DKK2-AP [6] = experiment: Scatchard analysis, cell binding (transfected 293T); panel e, Kd2 (low-affinity site)

B1: mkrm1 (receptor)
chain: ARPAPGPRSGPECFTANGADYRGTQSWTALQGGKPCLFWNETFQHPYNTLKYPNGEGGLGEHNYCRNPDGDVSPWCYVAEHEDGVYWKYCEIPACQMPGNLGCYKDHGNPPPLTGTSKTSNKLTIQTCISFCRSQRFKFAGMESGYACFCGNNPDYWKHGEAASTECNSVCFGDHTQPCGGDGRIILFDTLVGACGGNYSAMAAVVYSPDFPDTYATGRVCYWTIRVPGASRIHFNFTLFDIRDSADMVELLDGYTHRVLVRLSGRSRPPLSFNVSLDFVILYFFSDRINQAQGFAVLYQATKEEPPQERPAVNQTLAEVITEQANLSVSAAHSSKVLYVITPSPSHPPQTAPGSHSWAPSVGANSHRVEGWTVYGLATLLILTVTAVVAKILLHVTFKSHRVPASGDLRDCRQPGASGDIWTIFYEPSTTISIFKKKLKGQSQQDDRNPLVSD
Kd (DKK1-AP [1]): 0.28 nM | Kd (DKK2-AP [2]): 0.35 nM

B2: mkrm2 (receptor)
chain: GSLHSPGLSECFQVNGADYRGHQNYTGPRGAGRPCLFWDQTQQHSYSSASDPQGRWGLGAHNFCRNPDGDVQPWCYVAETEEGIYWRYCDIPTCHMPGYLGCFVDSGAPPALSGPSGTSTKLTVQVCLRFCRMKGYQLAGVEAGYACFCGSESDLARGRPAPATDCDQICFGHPGQLCGGDGRLGIYEVSVGSCQGNWSAPQGVIYSPDFPDEYGPDRNCSWVLGQLGAVLELTFRLFELADSRDRLELRDVSSGNLLRAFDGAHPPPPGPLRLRTAALLLTFRSDARGHAQGFALTYRGLQDTVEGRASPEDSTESLAGDPDGANASCSPKPGAAQASIGARVFSTVTAFSVLLLLLLSLLRLLRRRSCLLAPGKGSLAMGPSRGPGRSWAVWYRRPRGVALPCPPGDSQAEGPAAGYRPLSASSQSSLRSLVSAL
Kd (DKK1-AP [3]): 2.6 nM | Kd (DKK1-AP [4]): 0.3 nM | Kd (DKK2-AP [5]): 0.36 nM | Kd (DKK2-AP [6]): 3 nM
